Article PMC10397247
Each block holds one binder with its values, some of them ahead of it.

What was measured:
Assay in all cases: two-hybrid library CCmax;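 further: natural log of median RNA to DNA barcode read ratio; higher means stronger binding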
4H341-AA = target: T1, 4H341-AA
T1 chain: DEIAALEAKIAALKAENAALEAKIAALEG

4H3414-AA = target: T2, 4H3414-AA; details: mean of both orientations
T2 chain: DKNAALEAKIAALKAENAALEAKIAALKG

4H3449-AA = target: T3, 4H3449-AA; details: mean of both orientations
T3 chain: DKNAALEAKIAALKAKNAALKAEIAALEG

4H3595-AA = target: T4, 4H3595-AA; details: mean of both orientations
T4 chain: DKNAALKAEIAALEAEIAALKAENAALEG

4H3619-AA = target: T5, 4H3619-AA; details: mean of both orientations
T5 chain: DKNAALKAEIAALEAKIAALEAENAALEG

4H3629-AA = target: T6, 4H3629-AA; details: mean of both orientations
T6 chain: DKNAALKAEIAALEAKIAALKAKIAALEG

4H3777-AA = target: T7, 4H3777-AA; details: mean of both orientations
T7 chain: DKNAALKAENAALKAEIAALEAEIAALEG

4H3782-AA = target: T8, 4H3782-AA; details: mean of both orientations
T8 chain: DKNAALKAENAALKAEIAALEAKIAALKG

4H380-AA = target: T9, 4H380-AA; details: mean of both orientations
T9 chain: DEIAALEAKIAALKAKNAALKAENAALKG

4H3915-AA = target: T10, 4H3915-AA; details: mean of both orientations
T10 chain: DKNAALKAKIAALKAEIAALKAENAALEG

4H3939-AA = target: T11, 4H3939-AA; details: mean of both orientations
T11 chain: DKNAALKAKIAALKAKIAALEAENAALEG

4H3969-AA = target: T12, 4H3969-AA
T12 chain: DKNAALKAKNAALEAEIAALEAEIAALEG

4H3974-AA = target: T13, 4H3974-AA; details: mean of both orientations
T13 chain: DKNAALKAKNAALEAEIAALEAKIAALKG

4H432-AA = target: T14, 4H432-AA; details: mean of both orientations
T14 chain: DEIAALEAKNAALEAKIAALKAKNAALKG

4H446-AA = target: T15, 4H446-AA; details: mean of both orientations
T15 chain: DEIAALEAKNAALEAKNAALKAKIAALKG

4H464-AA = target: T16, 4H464-AA; details: mean of both orientations
T16 chain: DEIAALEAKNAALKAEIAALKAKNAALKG

4H483-AA = target: T17, 4H483-AA; details: mean of both orientations
T17 chain: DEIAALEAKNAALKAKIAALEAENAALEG

4H63-AA = target: T18, 4H63-AA; details: mean of both orientations
T18 chain: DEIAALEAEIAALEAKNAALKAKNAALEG

APC5383-AA = target: T19, APC5383-AA
T19 chain: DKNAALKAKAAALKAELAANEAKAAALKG

APC6108-AA = target: T20, APC6108-AA; details: mean of both orientations
T20 chain: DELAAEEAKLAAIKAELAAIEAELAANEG

APC7099-AA = target: T21, APC7099-AA; details: mean of both orientations
T21 chain: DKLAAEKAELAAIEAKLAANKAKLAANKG

APC8191-AA = target: T22, APC8191-AA; details: mean of both orientations
T22 chain: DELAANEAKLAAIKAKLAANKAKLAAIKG

APC8910-AA = target: T23, APC8910-AA; details: mean of both orientations
T23 chain: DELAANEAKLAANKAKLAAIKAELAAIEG

APC9096-AA = target: T24, APC9096-AA; details: mean of both orientations
T24 chain: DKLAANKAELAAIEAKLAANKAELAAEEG

APC9319-AA = target: T25, APC9319-AA; details: mean of both orientations
T25 chain: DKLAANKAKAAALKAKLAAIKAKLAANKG

4H3133-AA = target: T26, 4H3133-AA
T26 chain: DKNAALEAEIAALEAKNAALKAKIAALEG

4H3162-AA = target: T27, 4H3162-AA; details: mean of both orientations
T27 chain: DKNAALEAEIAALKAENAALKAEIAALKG

4H32-AA = target: T28, 4H32-AA; details: mean of both orientations
T28 chain: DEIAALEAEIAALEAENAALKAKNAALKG

4H3378-AA = target: T29, 4H3378-AA; details: mean of both orientations
T29 chain: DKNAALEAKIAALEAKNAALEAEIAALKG

4H340-AA = target: T30, 4H340-AA; details: mean of both orientations
T30 chain: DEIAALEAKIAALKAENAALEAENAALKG

4H3413-AA = target: T31, 4H3413-AA; details: mean of both orientations
T31 chain: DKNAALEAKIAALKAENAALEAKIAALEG

4H3588-AA = target: T32, 4H3588-AA; details: mean of both orientations
T32 chain: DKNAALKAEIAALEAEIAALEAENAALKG

4H3606-AA = target: T33, 4H3606-AA; details: mean of both orientations
T33 chain: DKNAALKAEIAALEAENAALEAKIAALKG

4H3631-AA = target: T34, 4H3631-AA; details: mean of both orientations
T34 chain: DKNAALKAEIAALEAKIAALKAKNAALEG

4H3697-AA = target: T35, 4H3697-AA; details: mean of both orientations
T35 chain: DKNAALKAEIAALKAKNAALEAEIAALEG

4H3718-AA = target: T36, 4H3718-AA; details: mean of both orientations
T36 chain: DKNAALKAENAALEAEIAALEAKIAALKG

4H384-AA = target: T37, 4H384-AA; details: mean of both orientations
T37 chain: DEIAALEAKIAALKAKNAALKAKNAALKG

4H3865-AA = target: T38, 4H3865-AA; details: mean of both orientations
T38 chain: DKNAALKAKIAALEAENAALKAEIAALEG

4H697-AA = target: T39, 4H697-AA; details: mean of both orientations
T39 chain: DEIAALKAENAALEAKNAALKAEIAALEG

4H982-AA = target: T40, 4H982-AA; details: mean of both orientations
T40 chain: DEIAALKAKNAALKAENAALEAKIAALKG

interaction score (4H341-AA): 1.84
interaction score (4H3414-AA): 0.22
interaction score (4H3449-AA): 0.461
interaction score (4H3595-AA): -1.29
interaction score (4H3619-AA): -1.22
interaction score (4H3629-AA): 2.2
interaction score (4H3777-AA): -1.17
interaction score (4H3782-AA): 0.558
interaction score (4H380-AA): -1.07
interaction score (4H3915-AA): -1.31
interaction score (4H3939-AA): -1.29
interaction score (4H3969-AA): 0.0125
interaction score (4H3974-AA): 0.589
interaction score (4H432-AA): -1.21
interaction score (4H446-AA): 0.795
interaction score (4H464-AA): 0.352
interaction score (4H483-AA): 0.738
interaction score (4H63-AA): 1.74
Binder: DEIAALEAKIAALKAENAALEAKIAALEG [4H341-AA]

interaction score (APC5383-AA): -1.83
interaction score (APC6108-AA): -1.32
interaction score (APC7099-AA): -1.61
interaction score (APC8191-AA): -2.31
interaction score (APC8910-AA): -1.6
interaction score (APC9096-AA): -1.73
interaction score (APC9319-AA): -2.03
Binder: DKNAALKAKAAALKAELAANEAKAAALKG [APC5383-AA]

interaction score (4H3133-AA): -0.726
interaction score (4H3162-AA): -1.24
interaction score (4H32-AA): -1.83
interaction score (4H3378-AA): -1.1
interaction score (4H340-AA): -0.539
interaction score (4H3413-AA): 1.97
interaction score (4H3588-AA): -1.47
interaction score (4H3606-AA): 1.29
interaction score (4H3631-AA): -0.654
interaction score (4H3697-AA): -0.244
interaction score (4H3718-AA): -0.85
interaction score (4H384-AA): -1.58
interaction score (4H3865-AA): 0.466
interaction score (4H697-AA): -1.6
interaction score (4H982-AA): 0.112
Binder: DKNAALEAEIAALEAKNAALKAKIAALEG [4H3133-AA]
